Measured values from patent US20260242483A1 (IMCHECK THERAPEUTICS, published 2026).
Positions count from the first letter of the chain named. Numbers in names are those of the source.

How the values were obtained:
[1] = biological target: T1, BTN3A3-CFP on HEK293T BTN3KO cells (human, UniProt O00478 30-584); assay: flow cytometry on HEK293T BTN3KO transiently transfected with BTN3A3-CFP, gated CFP+ (n = 5)
T1 construct: Transient transfection of BTN3A knock-out HEK293T; also called HEK293T BTN3KO + 3A3-CFP; not shown: CFP fusion partner
T1 sequence (O00478 30-584): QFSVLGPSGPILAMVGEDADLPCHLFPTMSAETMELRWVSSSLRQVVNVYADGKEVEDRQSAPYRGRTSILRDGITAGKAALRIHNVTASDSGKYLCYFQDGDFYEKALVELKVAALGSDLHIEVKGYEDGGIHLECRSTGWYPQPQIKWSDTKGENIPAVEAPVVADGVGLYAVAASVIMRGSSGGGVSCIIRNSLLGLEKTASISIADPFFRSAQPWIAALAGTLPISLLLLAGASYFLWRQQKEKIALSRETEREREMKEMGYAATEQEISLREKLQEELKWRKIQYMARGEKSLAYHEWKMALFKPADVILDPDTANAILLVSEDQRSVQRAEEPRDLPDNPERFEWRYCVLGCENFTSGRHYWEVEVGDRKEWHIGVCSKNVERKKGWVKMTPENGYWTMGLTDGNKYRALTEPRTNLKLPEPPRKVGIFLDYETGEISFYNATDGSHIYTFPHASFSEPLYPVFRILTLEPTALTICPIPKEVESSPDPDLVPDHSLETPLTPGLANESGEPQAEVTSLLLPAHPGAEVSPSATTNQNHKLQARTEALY

[2] = biological target: T2, recombinant human BTN3A1-His (Sino Biological Cat. No. 15973-H08H) (human, UniProt O00481 30-254); assay: SPR Biacore single cycle kinetics; BTN3A1-His captured via anti-His, IgG analyte, bivalent analyte fit
T2 construct: Bought protein; also called BTN3A1 His-tagged antigen; CD277; not shown: C-terminal His tag
T2 sequence (O00481 30-254 limits assumed): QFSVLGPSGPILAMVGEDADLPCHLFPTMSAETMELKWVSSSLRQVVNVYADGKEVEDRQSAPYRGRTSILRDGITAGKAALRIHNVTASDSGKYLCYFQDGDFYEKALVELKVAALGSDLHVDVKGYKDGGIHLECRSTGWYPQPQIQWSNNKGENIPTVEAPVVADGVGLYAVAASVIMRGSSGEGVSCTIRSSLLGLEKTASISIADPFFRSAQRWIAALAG
Protocol: (§1) All single cycle kinetic experiments were run at 25° C. with HBS-P+ running buffer (pH 7.4) containing 0.1% BSA (GE Healthcare, Little Chalfont, UK).
(§2) BTN3A1 His-tagged antigen (Sino Biological, Beijing, China) was diluted in running buffer to a final concentration of 0.4 μg/ml. At the start of each cycle, BTN3A1-His was captured onto Fc2 of CM5 sensor chip pre-coupled using a His capture kit (GE Healthcare, Little Chalfont, UK) with standard amine chemistry at a flow rate of 10 μl/min. An immobilization level (RL) of ~34 RU, 16 RU or 11 RU, the different theoretical values to obtain a RMax of ~50 RU was used for the analytes Fab, F(ab′) 2 and IgG respectively. The surface was then allowed to stabilize. Single cycle kinetic data was obtained with the purified samples (Fab, F(ab′)₂ and IgG) at a flow rate of 40 μl/min to minimize any potential mass transfer effects. The signal from the reference channel Fc1 (no antigen capture) was subtracted from that of Fc2 to correct for differences in non-specific binding to the reference surface. The signal for BTN3A1-His blank runs (no analyte) were subtracted to correct for differences in surface stability. The association phase for the five injections of increasing concentrations was monitored for 240 seconds each time and a single dissociation phase was measured for 1400 seconds following the last injection of analyte. Regeneration of the chip surface was conducted using two injections of 10 mM glycine-HCL pH 1.5 followed by a stabilization period of 240 seconds. Raw sensorgrams were fitted with a 1:1 model for Fab samples and with a bivalent analyte model for F(ab′)₂ and IgG samples in agreement with the different valences of the analytes. The kinetic constants were calculated for each variant (see Tables 10, 11 and 12).

[3] = biological target: T3, BTN3A2-CFP on HEK293T BTN3KO cells (human, UniProt P78410 30-334); assay: flow cytometry on HEK293T BTN3KO transiently transfected with BTN3A2-CFP, gated CFP+ (n = 5)
T3 construct: Transient transfection of BTN3A knock-out HEK293T; also called HEK293T BTN3KO + 3A2-CFP; not shown: CFP fusion partner
T3 sequence (P78410 30-334): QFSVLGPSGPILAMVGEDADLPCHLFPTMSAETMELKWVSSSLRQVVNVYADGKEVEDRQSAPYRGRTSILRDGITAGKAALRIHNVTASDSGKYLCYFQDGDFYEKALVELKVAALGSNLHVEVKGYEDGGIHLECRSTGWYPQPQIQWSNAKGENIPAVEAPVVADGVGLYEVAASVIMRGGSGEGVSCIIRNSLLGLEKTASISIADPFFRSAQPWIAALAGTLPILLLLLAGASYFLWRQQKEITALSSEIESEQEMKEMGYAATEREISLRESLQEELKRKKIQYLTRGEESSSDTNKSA

[4] = biological target: T4, BTN3A1-CFP on HEK293T BTN3KO cells (human, UniProt O00481 30-513); assay: flow cytometry on HEK293T BTN3KO transiently transfected with BTN3A1-CFP, gated CFP+ (n = 4)
T4 construct: Transient transfection of BTN3A knock-out HEK293T; also called HEK293T BTN3KO + 3A1-CFP; not shown: CFP fusion partner
T4 sequence (O00481 30-513): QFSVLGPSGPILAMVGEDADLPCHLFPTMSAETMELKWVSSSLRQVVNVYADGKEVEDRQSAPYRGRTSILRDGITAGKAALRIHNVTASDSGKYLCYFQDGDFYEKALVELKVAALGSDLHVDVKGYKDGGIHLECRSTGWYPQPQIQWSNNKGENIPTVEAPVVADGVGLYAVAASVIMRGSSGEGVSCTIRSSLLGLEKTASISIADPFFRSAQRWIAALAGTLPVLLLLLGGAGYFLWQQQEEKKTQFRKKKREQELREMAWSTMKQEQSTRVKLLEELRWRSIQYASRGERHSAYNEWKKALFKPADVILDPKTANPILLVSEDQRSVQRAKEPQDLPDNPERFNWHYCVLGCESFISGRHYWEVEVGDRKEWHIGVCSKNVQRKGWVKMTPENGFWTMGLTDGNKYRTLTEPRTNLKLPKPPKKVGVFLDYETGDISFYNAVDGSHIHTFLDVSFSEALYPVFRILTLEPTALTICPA

[5] = biological target: T2, recombinant human BTN3A1-His (Sino …); assay: SPR Biacore multi-cycle kinetics; antibody captured on Protein A, BTN3A1-His analyte, 1:1 fit
[6] = biological target: T2, recombinant human BTN3A1-His (Sino …); assay: SPR Biacore single cycle kinetics; BTN3A1-His captured via anti-His, IgG analyte, bivalent analyte fit (Ka1)
Protocol: as §1
as §2, with “The signal for BTN3A1-His blank runs (no analyte) were subtracted to correct for differences in surface stability.” left out, “Regeneration of the chip surface was conducted using two injections of 10 mM glycine-HCL pH 1.5 followed by a stabilization period of 240 seconds. Raw sensorgrams were fitted with a 1:1 model for Fab samples and with a bivalent analyte model for F(ab′)₂ and IgG samples in agreement with the different valences of the analytes.” left out

[7] = biological target: T2, recombinant human BTN3A1-His (Sino …); assay: SPR Biacore single cycle kinetics; BTN3A1-His captured via anti-His, IgG analyte, bivalent analyte fit (Kd 1)
Protocol: as §1
as §2, with “The signal for BTN3A1-His blank runs (no analyte) were subtracted to correct for differences in surface stability.” left out, “Regeneration of the chip surface was conducted using two injections of 10 mM glycine-HCL pH 1.5 followed by a stabilization period of 240 seconds. Raw sensorgrams were fitted with a 1:1 model for Fab samples and with a bivalent analyte model for F(ab′)₂ and IgG samples in agreement with the different valences of the analytes.” left out

[8] = biological target: T2, recombinant human BTN3A1-His (Sino …); assay: SPR Biacore single cycle kinetics; BTN3A1-His captured via anti-His, F(ab′)2 analyte, bivalent analyte fit
Protocol: as §1
as §2, with “The signal for BTN3A1-His blank runs (no analyte) were subtracted to correct for differences in surface stability.” left out, “Regeneration of the chip surface was conducted using two injections of 10 mM glycine-HCL pH 1.5 followed by a stabilization period of 240 seconds. Raw sensorgrams were fitted with a 1:1 model for Fab samples and with a bivalent analyte model for F(ab′)₂ and IgG samples in agreement with the different valences of the analytes.” left out

B1: mAb1 (antibody, human IgG1, kappa)
heavy: QVQLVQSGAEVKKPGASVKLSCKASGYIFTRYYMYWVKQRPGQGLEWIGEINPNNGGTKFNEKFKNRATLTVDKSISTAYMELSRLRSDDTAVYYCSREDDYDGTPFAMDYWGQGTLVTVSSASTKGPSVFPLAPSSKSTSGGTAALGCLVKDYFPEPVTVSWNSGALTSGVHTFPAVLQSSGLYSLSSVVTVPSSSLGTQTYICNVNHKPSNTKVDKRVEPKSCDKTHTCPPCPAPEFEGGPSVFLFPPKPKDTLMISRTPEVTCVVVDVSHEDPEVKFNWYVDGVEVHNAKTKPREEQYNSTYRVVSVLTVLHQDWLNGKEYKCKVSNKALPASIEKTISKAKGQPREPQVYTLPPSREEMTKNQVSLTCLVKGFYPSDIAVEWESNGQPENNYKTTPPVLDSDGSFFLYSKLTVDKSRWQQGNVFSCSVMHEALHNHYTQKSLSLSPG
light: not shown
notes: Humanized 7.2 (VH2/Vk1), silent IgG1 L247F/L248E/P350S, kappa; also called 7.2 VH2/VK1 IgG1; IgG1 7.2 VH2/VK1
With B1 the EC50 [1] was 1.75 µg/mL, the “Kd 2” value [2] was 44 s⁻¹ and the EC50 [3] was 1.88 µg/mL. It also gave an EC50 [4] of 2.4 µg/mL.

B2: mAb2 (antibody, human IgG1, kappa)
heavy: B1 heavy
light: not shown
notes: Humanized 7.2 (VH2/Vk2), silent IgG1 L247F/L248E/P350S, kappa; also called 7.2 VH2/VK2 IgG1; IgG1 7.2 VH2/VK2
B2 was tested, and the “Kd 2” value [2] was 0.0241 s⁻¹.

B3: Chimeric 7.2 (VH0/Vκ0) (antibody, V domains shown)
VH: QVQLQQSGAELVKPGASVKLSCKASGYIFTRYYMYWVKQRPGQGLEWIGEINPNNGGTKFNEKFKNKATLTVDKFSSTAYMQLRSLTSEDSAVYYCSREDDYDGTPFAMDYWGQGTSVTVSS
VL: DIQMNQSPSSLSASLGDTITITCHASQNINVWLSWYQQKPGNIPKLLIYKASNLHTGVPSRFTGSGSGTGFTLTISSLQPEDIATYYCQQGQTYPYTFGGGTKLEIK
notes: not used; also called 7.2 VH0/Vk0; chimeric 7.2 antibody
A Kd [5] of 0.176 nM was found for B3 in this work.

B4: mAb3 (antibody, V domains shown)
VH: QVQLVQSGAEVKKPGASVKVSCKASGYTFNGYYIHWVRQAPGQGLEWMGWINSNSGGTKYAQKFQGRVTMTRDTSISTAYMELSRLRSDDTAVYYCARRHSDMIGYYYGMDVWGQGTTVTVSS
VL: DIQMTQSPSSVSASVGDRVTITCRASQGISSWLAWYQQKPGKAPKLLIYAASSLQSGVPSRFSGSGSGTDFTLTISSLQPEDFATYYCQQATDFPPTFGGGTKVEIKR
B4 was tested, and the kon [6] was 56300 M⁻¹ s⁻¹, the “Kd 2” value [2] was 8.6e-05 s⁻¹ and the koff [7] was 0.00379 s⁻¹.

B5: mAb6 (antibody, V domains shown)
VH: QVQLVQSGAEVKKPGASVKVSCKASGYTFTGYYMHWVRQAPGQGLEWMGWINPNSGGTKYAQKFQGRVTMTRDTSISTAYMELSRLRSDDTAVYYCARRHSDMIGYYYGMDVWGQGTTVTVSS
VL: B4 VL with V11L, G28S, S31L, W32F, A34N, A50T, T92N, D93S, E105D
A Kd [5] of 0.319 nM was found for B5 in this work.

B6: 7.2 VH2/VK1 F(ab′)2 (other)
heavy: QVQLVQSGAEVKKPGASVKLSCKASGYIFTRYYMYWVKQRPGQGLEWIGEINPNNGGTKFNEKFKNRATLTVDKSISTAYMELSRLRSDDTAVYYCSREDDYDGTPFAMDYWGQGTLVTVSS
light: not shown
notes: not shown: IgG4 CH1 and hinge up to the pepsin cleavage site
B6 was tested, and the “Kd 2” value [8] was 32.4 s⁻¹.

B7: 7.2 VH2/VK2 F(ab′)2 (other)
heavy: B6 heavy
light: not shown
notes: as for B6
With B7 the “Kd 2” value [8] was 54.6 s⁻¹.
